Data as given in patent US20140213531A1 (POLYPHOR, published 2014).
Bridges are numbered along the chain shown (N, C = ends). Primed or numbered codes have the meaning given here. [ ]: non-standard residue; d: D form. Pro(4NHCOPhe)″ = 4-benzamido-L-proline, (2S)-4-benzoylamino-pyrrolidine-2-carboxylic acid; Gly(octyl) = CCCCCCCC[C@H](N)C(=O)O; Pro(4NHCOPhe) = not defined here; Cha = N[C@@H](CC1CCCCC1)C(=O)O; Nle = CCCC[C@H](N)C(=O)O

T1: CathepsinG, from human neutrophils (human, UniProt P08311 21-244)
T1 construct: purified natural enzyme, bought
T1 sequence (looked up): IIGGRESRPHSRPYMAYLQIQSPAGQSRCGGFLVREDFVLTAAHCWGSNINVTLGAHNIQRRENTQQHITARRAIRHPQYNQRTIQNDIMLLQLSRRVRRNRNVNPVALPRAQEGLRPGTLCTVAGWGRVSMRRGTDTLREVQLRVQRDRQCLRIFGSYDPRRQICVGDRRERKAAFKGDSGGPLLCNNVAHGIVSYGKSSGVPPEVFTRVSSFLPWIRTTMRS

T2: Chymase, from human skin (human, UniProt P23946 22-247)
T2 construct: purified natural enzyme, bought
T2 sequence (looked up): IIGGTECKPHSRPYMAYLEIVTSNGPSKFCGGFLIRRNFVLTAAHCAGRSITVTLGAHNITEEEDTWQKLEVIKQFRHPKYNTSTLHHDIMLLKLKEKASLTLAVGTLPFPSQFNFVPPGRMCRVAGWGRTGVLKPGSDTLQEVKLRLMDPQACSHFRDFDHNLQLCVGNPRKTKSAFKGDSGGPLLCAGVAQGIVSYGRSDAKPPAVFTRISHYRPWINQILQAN

B1: Example 91 (peptide)
peptide: XCTASIPPQCQ
HELM: PEPTIDE1{[Nle].C.T.A.S.I.P.P.Q.C.Q.[dP].P}$PEPTIDE1,PEPTIDE1,2:R3-10:R3|PEPTIDE1,PEPTIDE1,1:R1-13:R2$$$V2.0
SMILES: CCCC[C@@H]1NC(=O)[C@@H]2CCCN2C(=O)[C@H]2CCCN2C(=O)[C@H](CCC(N)=O)NC(=O)[C@@H]2CSSC[C@H](NC1=O)C(=O)N[C@@H]([C@@H](C)O)C(=O)N[C@@H](C)C(=O)N[C@@H](CO)C(=O)N[C@@H]([C@@H](C)CC)C(=O)N1CCC[C@H]1C(=O)N1CCC[C@H]1C(=O)N[C@@H](CCC(N)=O)C(=O)N2
notes: also called Ex. 91
B2: Example 109 (peptide)
peptide: XQTASIPPQTY
HELM: PEPTIDE1{[Nle].Q.T.A.S.I.P.P.Q.T.Y.[dP].P}$PEPTIDE1,PEPTIDE1,1:R1-13:R2$$$V2.0
SMILES: CCCC[C@@H]1NC(=O)[C@@H]2CCCN2C(=O)[C@H]2CCCN2C(=O)[C@H](Cc2ccc(O)cc2)NC(=O)[C@H]([C@@H](C)O)NC(=O)[C@H](CCC(N)=O)NC(=O)[C@@H]2CCCN2C(=O)[C@@H]2CCCN2C(=O)[C@H]([C@@H](C)CC)NC(=O)[C@H](CO)NC(=O)[C@H](C)NC(=O)[C@H]([C@@H](C)O)NC(=O)[C@H](CCC(N)=O)NC1=O
notes: also called Ex. 109
B3: Example 154 (peptide)
peptide: XQTASIPPQTY
HELM: PEPTIDE1{[CCCCCCCC[C@H](N[*:1])C(=O)[*:2]].Q.T.A.S.I.P.P.Q.T.Y.[dP].P}$PEPTIDE1,PEPTIDE1,1:R1-13:R2$$$V2.0
SMILES: CCCCCCCC[C@@H]1NC(=O)[C@@H]2CCCN2C(=O)[C@H]2CCCN2C(=O)[C@H](Cc2ccc(O)cc2)NC(=O)[C@H]([C@@H](C)O)NC(=O)[C@H](CCC(N)=O)NC(=O)[C@@H]2CCCN2C(=O)[C@@H]2CCCN2C(=O)[C@H]([C@@H](C)CC)NC(=O)[C@H](CO)NC(=O)[C@H](C)NC(=O)[C@H]([C@@H](C)O)NC(=O)[C@H](CCC(N)=O)NC1=O
B4: Example 174 (peptide)
peptide: XCTASIPPQCY
HELM: PEPTIDE1{[O=C([C@H](CCc1ccccc1)N[*:1])[*:2]].C.T.A.S.I.P.P.Q.C.Y.[dK].E}$PEPTIDE1,PEPTIDE1,2:R3-10:R3|PEPTIDE1,PEPTIDE1,1:R1-13:R2$$$V2.0
SMILES: CC[C@H](C)[C@@H]1NC(=O)[C@H](CO)NC(=O)[C@H](C)NC(=O)[C@H]([C@@H](C)O)NC(=O)[C@@H]2CSSC[C@H](NC(=O)[C@H](CCC(N)=O)NC(=O)[C@@H]3CCCN3C(=O)[C@@H]3CCCN3C1=O)C(=O)N[C@@H](Cc1ccc(O)cc1)C(=O)N[C@H](CCCCN)C(=O)N[C@@H](CCC(=O)O)C(=O)N[C@@H](CCc1ccccc1)C(=O)N2
B5: Example 169 (peptide)
peptide: XCTASXPPQCY
HELM: PEPTIDE1{[Nle].C.T.A.S.[CCCCCCCC[C@H](N[*:1])C(=O)[*:2]].P.P.Q.C.Y.[dP].Q}$PEPTIDE1,PEPTIDE1,2:R3-10:R3|PEPTIDE1,PEPTIDE1,1:R1-13:R2$$$V2.0
SMILES: CCCCCCCC[C@@H]1NC(=O)[C@H](CO)NC(=O)[C@H](C)NC(=O)[C@H]([C@@H](C)O)NC(=O)[C@@H]2CSSC[C@H](NC(=O)[C@H](CCC(N)=O)NC(=O)[C@@H]3CCCN3C(=O)[C@@H]3CCCN3C1=O)C(=O)N[C@@H](Cc1ccc(O)cc1)C(=O)N1CCC[C@@H]1C(=O)N[C@@H](CCC(N)=O)C(=O)N[C@@H](CCCC)C(=O)N2
notes: also called Ex. 169
B6: Example 140 (peptide)
peptide: XCTASXPPQCY
HELM: PEPTIDE1{[Nle].C.T.A.S.[O=C([C@@H](N[*:1])C1CCCCC1)[*:2]].P.P.Q.C.Y.[dP].P}$PEPTIDE1,PEPTIDE1,2:R3-10:R3|PEPTIDE1,PEPTIDE1,1:R1-13:R2$$$V2.0
SMILES: CCCC[C@@H]1NC(=O)[C@@H]2CCCN2C(=O)[C@H]2CCCN2C(=O)[C@H](Cc2ccc(O)cc2)NC(=O)[C@@H]2CSSC[C@H](NC1=O)C(=O)N[C@@H]([C@@H](C)O)C(=O)N[C@@H](C)C(=O)N[C@@H](CO)C(=O)N[C@@H](C1CCCCC1)C(=O)N1CCC[C@H]1C(=O)N1CCC[C@H]1C(=O)N[C@@H](CCC(N)=O)C(=O)N2
notes: also called Ex. 140
B7: Example 136 (peptide)
peptide: XCTASIPPQCX
HELM: PEPTIDE1{[Nle].C.T.A.S.I.P.P.Q.C.[Phg].[dP].P}$PEPTIDE1,PEPTIDE1,2:R3-10:R3|PEPTIDE1,PEPTIDE1,1:R1-13:R2$$$V2.0
SMILES: CCCC[C@@H]1NC(=O)[C@@H]2CCCN2C(=O)[C@H]2CCCN2C(=O)[C@H](c2ccccc2)NC(=O)[C@@H]2CSSC[C@H](NC1=O)C(=O)N[C@@H]([C@@H](C)O)C(=O)N[C@@H](C)C(=O)N[C@@H](CO)C(=O)N[C@@H]([C@@H](C)CC)C(=O)N1CCC[C@H]1C(=O)N1CCC[C@H]1C(=O)N[C@@H](CCC(N)=O)C(=O)N2
notes: also called Ex. 136
B8: Example 167 (peptide)
peptide: XCTASIPPQCY
HELM: PEPTIDE1{[Nle].C.T.A.S.I.P.P.Q.C.Y.[dP].F}$PEPTIDE1,PEPTIDE1,2:R3-10:R3|PEPTIDE1,PEPTIDE1,1:R1-13:R2$$$V2.0
SMILES: CCCC[C@@H]1NC(=O)[C@H](Cc2ccccc2)NC(=O)[C@H]2CCCN2C(=O)[C@H](Cc2ccc(O)cc2)NC(=O)[C@@H]2CSSC[C@H](NC1=O)C(=O)N[C@@H]([C@@H](C)O)C(=O)N[C@@H](C)C(=O)N[C@@H](CO)C(=O)N[C@@H]([C@@H](C)CC)C(=O)N1CCC[C@H]1C(=O)N1CCC[C@H]1C(=O)N[C@@H](CCC(N)=O)C(=O)N2
notes: also called Ex. 167

Target: T1, CathepsinG, from human neutrophils
Assay: enzyme inhibition, pNA substrate

% inhibition at 100 µM [%]	Binder
47	cyclo([Nle]CAASIPPQCY[dP]P) (disulfide 2-10, also called Ex. 86) [Example 86]
45	B1
54.1	B2
46	cyclo([Gly(octyl)]ETASIPPQKY[dP]P) (also called Ex. 156) [Example 156]
27	B3
56	B4
69	cyclo([Nle]CTAS[Cha]P[Pro(4NHCOPhe)]QCQ[dQ]Q) (disulfide 2-10; reading uncertain, also called Ex. 176) [Example 176]

Target: T3, Trypsin, Iodination grade, from human pancreas (human, UniProt P07477 24-247)
T3 construct: purified natural enzyme, bought
Assay: enzyme inhibition, pNA substrate

% inhibition at 100 µM [%]	Binder
12.2	cyclo([Nle]CTASIP[Pro(4NHCOPhe)″]QCY[dP]P) (disulfide 2-10) [Example 138]
0	cyclo([Nle]CAASIPPQCY[dP]P) (disulfide 2-10, also called Ex. 86) [Example 86]
0	B1
10.8	B5
10.8	B6
0	B2
0	cyclo([Gly(octyl)]ETASIPPQKY[dP]P) (also called Ex. 156) [Example 156]
0	B3
0	B7
19	B8

Target: T4, Chymotrypsin, from human pancreas (human, UniProt P17538 19-263)
T4 construct: purified natural enzyme, bought
Assay: enzyme inhibition, pNA substrate

T4 sequence (P17538 19-263): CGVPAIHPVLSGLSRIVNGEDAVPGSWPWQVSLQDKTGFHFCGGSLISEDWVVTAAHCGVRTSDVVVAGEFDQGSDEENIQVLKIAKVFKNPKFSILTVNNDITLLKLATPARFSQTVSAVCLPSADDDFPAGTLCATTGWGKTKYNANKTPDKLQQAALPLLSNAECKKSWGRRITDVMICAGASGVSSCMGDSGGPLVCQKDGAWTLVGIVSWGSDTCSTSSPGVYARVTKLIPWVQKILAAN

% inhibition at 100 µM [%]	Binder
77.1	cyclo([Nle]CTASIP[Pro(4NHCOPhe)″]QCY[dP]P) (disulfide 2-10) [Example 138]
79.6	B5
79.6	B6
13.8	B2
67.9	B7
85	B4
55	cyclo([Nle]CTAS[Cha]P[Pro(4NHCOPhe)]QCQ[dQ]Q) (disulfide 2-10; reading uncertain, also called Ex. 176) [Example 176]
60.2	B8

Target: T2, Chymase, from human skin
Assay: enzyme inhibition, pNA substrate

% inhibition at 100 µM [%]	Binder
0	cyclo([Nle]CAASIPPQCY[dP]P) (disulfide 2-10, also called Ex. 86) [Example 86]
0	B5
0	B6
0	cyclo([Gly(octyl)]ETASIPPQKY[dP]P) (also called Ex. 156) [Example 156]
0	B3
0	B7
0	B4

Target: Thrombin, from Human Plasma, high activity (human, UniProt P00734 328-622)
Assay: enzyme inhibition, pNA substrate

% inhibition at 100 µM [%]	Binder
17.1	cyclo([Nle]CTASIP[Pro(4NHCOPhe)″]QCY[dP]P) (disulfide 2-10) [Example 138]
10.7	cyclo([Nle]CAASIPPQCY[dP]P) (disulfide 2-10, also called Ex. 86) [Example 86]
13.5	B1
20.6	B5
20.6	B6
0	B2
17	cyclo([Gly(octyl)]ETASIPPQKY[dP]P) (also called Ex. 156) [Example 156]
11	B4
15	cyclo([Nle]CTAS[Cha]P[Pro(4NHCOPhe)]QCQ[dQ]Q) (disulfide 2-10; reading uncertain, also called Ex. 176) [Example 176]
0	B8

Target: T5, Coagulation Factor Xa, from uman plasma (human, UniProt P00742 41-179; P00742 235-488, limits assumed)
T5 construct: purified natural enzyme, bought; also called FXa
Assay: enzyme inhibition, pNA substrate

T5 sequence (P00742 41-179 limits assumed, chain 1 of 2): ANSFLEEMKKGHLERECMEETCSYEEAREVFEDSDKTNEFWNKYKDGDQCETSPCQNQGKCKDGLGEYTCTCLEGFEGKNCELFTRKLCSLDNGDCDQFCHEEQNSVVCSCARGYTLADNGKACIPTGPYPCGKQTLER
T5 sequence (P00742 235-488 limits assumed, chain 2 of 2): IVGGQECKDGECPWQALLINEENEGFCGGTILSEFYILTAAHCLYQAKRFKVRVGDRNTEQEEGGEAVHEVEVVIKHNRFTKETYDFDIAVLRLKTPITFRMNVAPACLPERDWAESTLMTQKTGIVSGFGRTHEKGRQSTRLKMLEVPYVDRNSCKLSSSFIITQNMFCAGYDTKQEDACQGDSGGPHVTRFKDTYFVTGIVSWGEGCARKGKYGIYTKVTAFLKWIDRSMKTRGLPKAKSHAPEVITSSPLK

% inhibition at 100 µM [%]	Binder
12.6	cyclo([Nle]CTASIP[Pro(4NHCOPhe)″]QCY[dP]P) (disulfide 2-10) [Example 138]
24.8	cyclo([Nle]CAASIPPQCY[dP]P) (disulfide 2-10, also called Ex. 86) [Example 86]
19.4	B1
13.3	B5
13.3	B6
0	cyclo([Gly(octyl)]ETASIPPQKY[dP]P) (also called Ex. 156) [Example 156]
0	B3
0	B7
19.6	B8

Target: T6, Urokinase from human urine (human, UniProt P00749 21-431, limits assumed)
T6 construct: purified natural enzyme, bought
Assay: enzyme inhibition, pNA substrate

% inhibition at 100 µM [%]	Binder
14.4	cyclo([Nle]CTASIP[Pro(4NHCOPhe)″]QCY[dP]P) (disulfide 2-10) [Example 138]
10.4	B5
10.4	B6
0	B7
11.1	B8

Target: T7, Tryptase, from human lung (human, UniProt Q15661 31-275, limits assumed)
T7 construct: purified natural enzyme, bought
Assay: enzyme inhibition, pNA substrate

T7 sequence (Q15661 31-275 limits assumed): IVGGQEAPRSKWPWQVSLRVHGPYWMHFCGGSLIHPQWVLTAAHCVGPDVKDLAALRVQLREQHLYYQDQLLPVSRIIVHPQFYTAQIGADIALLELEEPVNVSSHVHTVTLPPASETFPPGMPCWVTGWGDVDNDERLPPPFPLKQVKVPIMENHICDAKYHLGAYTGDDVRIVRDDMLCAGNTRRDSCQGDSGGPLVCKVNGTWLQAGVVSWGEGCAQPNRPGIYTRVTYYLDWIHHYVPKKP

% inhibition at 100 µM [%]	Binder
0	cyclo([Nle]CTASIP[Pro(4NHCOPhe)″]QCY[dP]P) (disulfide 2-10) [Example 138]
0	cyclo([Nle]CAASIPPQCY[dP]P) (disulfide 2-10, also called Ex. 86) [Example 86]
15	cyclo([Gly(octyl)]ETASIPPQKY[dP]P) (also called Ex. 156) [Example 156]
15	B3
0	B7
10	B4
17	cyclo([Nle]CTAS[Cha]P[Pro(4NHCOPhe)]QCQ[dQ]Q) (disulfide 2-10; reading uncertain, also called Ex. 176) [Example 176]
